Where two headings read alike, the source gives them in different places. Values belong to the binder of their own block, whether it stands above or below them.
Key:
human IL4 [1] = target: T1, human IL4 (human, UniProt P05112); test: SPR
T1 chain: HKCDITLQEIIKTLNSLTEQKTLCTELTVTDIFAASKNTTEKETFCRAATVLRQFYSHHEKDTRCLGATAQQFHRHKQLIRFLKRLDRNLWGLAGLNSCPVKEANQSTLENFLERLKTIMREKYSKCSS

human IL4 [2] = target: T1, human IL4; test: SPR

- Kd (human IL4 [1]): 2.75 pM
- Kd (human IL4 [2]): 2.29 pM
B1: sLC-Tandem-(anti-IL4xanti-IL13)-ΔPCL1-huIgG1, IL4 arm (antibody)
chain 1: not shown
chain 2: DIQMTQSPASLSVSVGDTITLTCHASQNIDVWLSWFQQKPGNIPKLLIYKASNLHTGVPSRFSGSGSGTGFTLTISSLQPEDIATYYCQQAHSYPFTFGGGTKLEIKRTVAAPSVFIFPPSDEQLKSGTASVVCLLNNFYPREAKVQWKVDNALQSGNSQESVTEQDSKDSTYSLSSTLTLSKADYEKHKVYACEVTHQGLSSPVTKSFNRGEC

- Kd (human IL4 [2]): 2.32 pM
B2: Tandem-(anti-IL4xanti-IL13)-huIgG1, IL4 arm (antibody)
chain 1: not shown
chain 2: B1 chain 2

- Kd (human IL4 [1]): 1.33 pM
- Kd (human IL4 [2]): 1.05 pM
B3: sLC-Tandem-(anti-IL4xanti-IL13)-PCL2-huIgG1, IL4 arm (antibody)
chain 1: not shown
chain 2: B1 chain 2

- Kd (human IL4 [2]): 1.86 pM
B4: sLC-Tandem-(anti-IL4xanti-IL13)-His8-PCL1-huIgG1 with Furin-KDEL, IL4 arm (antibody)
chain 1: not shown
chain 2: B1 chain 2

- Kd (human IL4 [1]): 1.42 pM
- Kd (human IL4 [2]): 0.901 pM
B5: sLC-Tandem-(anti-IL4xanti-IL13)-PCL1-huIgG1, IL4 arm (antibody)
chain 1: not shown
chain 2: B1 chain 2

- Kd (human IL4 [2]): 1.53 pM
B6: sLC-Tandem-(anti-IL4xanti-IL13)-His8-PCL1-huIgG1 with Furin, IL4 arm (antibody)
chain 1: not shown
chain 2: B1 chain 2

Reference: patent US12723106 (dated 2026)
